Source: publication PMC5091643, “Dimer/monomer status and in vivo function of salt‐bridge mutants of the plant UV‐B photoreceptor UVR8” (The Plant Journal, 2016)
Substitutions are numbered along the chain they refer to. Names may count otherwise. One block for each binder: values may come before it.

What was measured:
[1] = target: T1, UV … LOCUS8 (UVR8), purified wild-type (Arabidopsis thaliana), Q9FN03; experiment: SEC; purified proteins not exposed to UV-B; Superdex 200 HR10/30, 50 mM Tris pH 7.5, 150 mM NaCl, 1 mM β-ME, 0.02% sodium azide, 4°C; dimer to monomers; settings: remark: other sources report otherwise
T1 chain: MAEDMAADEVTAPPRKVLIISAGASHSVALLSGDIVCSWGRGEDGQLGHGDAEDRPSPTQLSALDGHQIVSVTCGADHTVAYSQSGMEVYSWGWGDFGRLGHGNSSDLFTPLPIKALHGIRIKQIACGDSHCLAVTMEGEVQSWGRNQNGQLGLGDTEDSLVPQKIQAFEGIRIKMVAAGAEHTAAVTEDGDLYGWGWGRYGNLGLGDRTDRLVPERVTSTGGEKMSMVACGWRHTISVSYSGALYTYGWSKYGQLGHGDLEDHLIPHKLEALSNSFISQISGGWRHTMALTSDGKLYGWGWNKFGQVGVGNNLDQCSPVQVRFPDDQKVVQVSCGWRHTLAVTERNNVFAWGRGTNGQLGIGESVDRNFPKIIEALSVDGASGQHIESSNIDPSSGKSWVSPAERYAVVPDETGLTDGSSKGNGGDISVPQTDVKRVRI

[2] = target: the molecule itself; experiment: cross-linking; DSP (4 mM, 30 min on ice) added to PBS extracts of transgenic uvr8-1 plants not exposed to UV-B; 10% SDS-PAGE without β-ME, blot with anti-UVR8
[3] = target: T2, GFP-UVR8 (wild type) in transgenic Arabidopsis uvr8-1 (Arabidopsis thaliana), Q9FN03; experiment: SDS-PAGE with non-boiled samples; whole cell extracts of transgenic uvr8-1 plants not exposed to UV-B; SDS-loading buffer, not boiled, 7.5% gel, blot with anti-UVR8; settings: remark: other sources report otherwise
T2 chain: T1 chain

[4] = target: T2, GFP-UVR8 (wild type) in transgenic …; experiment: cross-linking; DSP (4 mM, 30 min on ice) added to PBS extracts of transgenic uvr8-1 plants not exposed to UV-B; 10% SDS-PAGE without β-ME, blot with anti-UVR8; settings: remark: other sources report otherwise
[5] = target: the molecule itself; experiment: SEC; purified proteins not exposed to UV-B; Superdex 200 HR10/30, 50 mM Tris pH 7.5, 150 mM NaCl, 1 mM β-ME, 0.02% sodium azide, 4°C; dimer to monomers
[6] = target: T3, GFP-UVR8 (wild type) transiently expressed in Nicotiana benthamiana (Arabidopsis thaliana), Q9FN03; experiment: SEC; GFP fusions transiently expressed in N. benthamiana, not exposed to UV-B, immunoprecipitated with anti-GFP microbeads; eluates on Superdex 200, fractions blotted with anti-GFP; settings: remark: other sources report otherwise
T3 chain: T1 chain

stoichiometry N [1]: 2
B1: UV … LOCUS8 (UVR8), purified wild-type, Q9FN03 1-440 (natural protein)
chain: T1 chain

B2: GFP-UVR8^R286K in transgenic Arabidopsis uvr8-1 (natural protein, Arabidopsis thaliana, UniProt Q9FN03 1-440, looked up)
chain: T1 chain with R286K
notes: UV … LOCUS8 (UVR8), Arabidopsis thaliana; Sub-cloned into pEZR(K)L-C downstream of eGFP; also called line 2-3; source: transgenic Arabidopsis uvr8-1 plants (CaMV 35S promoter), in whole cell extract; not shown: eGFP, N-terminal, kept
stoichiometry N [2]: 2

stoichiometry N [3]: 2 | stoichiometry N [4]: 2
B3: GFP-UVR8 (wild type) in transgenic Arabidopsis uvr8-1, Q9FN03 1-440 (natural protein)
chain: T1 chain

B4: UVR8^R286K, purified (natural protein, Arabidopsis thaliana, UniProt Q9FN03 1-440, looked up)
chain: T1 chain with R286K
notes: UV … LOCUS8 (UVR8), Arabidopsis thaliana; source: E. coli, purified as described previously (Christie et al., 2012)
stoichiometry N [5]: 2

B5: GFP-UVR8^R146A in transgenic Arabidopsis uvr8-1 (natural protein, Arabidopsis thaliana, UniProt Q9FN03 1-440, looked up)
chain: T1 chain with R146A
notes: UV … LOCUS8 (UVR8), Arabidopsis thaliana; Sub-cloned into pEZR(K)L-C downstream of eGFP; also called line 9; source: transgenic Arabidopsis uvr8-1 plants (CaMV 35S promoter), in whole cell extract; not shown: eGFP, N-terminal, kept
stoichiometry N [2]: 2

B6: UVR8^R146A, purified (natural protein, Arabidopsis thaliana, UniProt Q9FN03 1-440, looked up)
chain: T1 chain with R146A
notes: as for B4
stoichiometry N [5]: 2

stoichiometry N [6]: 2
B7: GFP-UVR8 (wild type) transiently expressed in Nicotiana benthamiana, Q9FN03 1-440 (natural protein)
chain: T1 chain
